# Laboratory results published in patent publication US20150344570A1 (published 2015).
# T1: FcγRIIa H (human, UniProt P12318 34-217)
# T1 construct: extracellular domain; also called FcgRIIa H; FcγRIIa type H
# T1 sequence (looked up): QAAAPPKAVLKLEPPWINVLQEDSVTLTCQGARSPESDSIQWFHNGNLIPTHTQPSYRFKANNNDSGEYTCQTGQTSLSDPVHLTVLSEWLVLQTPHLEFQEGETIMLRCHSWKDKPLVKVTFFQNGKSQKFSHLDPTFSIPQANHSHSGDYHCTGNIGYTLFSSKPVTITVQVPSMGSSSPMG
# T2: FcγRIIb (human, UniProt P31994 43-217)
# T2 construct: extracellular domain; also called FcgRIIb; 2b
# T2 sequence (looked up): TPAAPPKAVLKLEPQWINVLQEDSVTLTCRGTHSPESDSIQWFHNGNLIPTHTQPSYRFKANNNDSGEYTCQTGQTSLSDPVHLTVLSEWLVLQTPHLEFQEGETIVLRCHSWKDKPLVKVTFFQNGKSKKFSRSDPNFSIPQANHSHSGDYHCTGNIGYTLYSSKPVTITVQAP
# B1: GpH7-A5/GpH7-B3 variant S267_07I/GpL16-k0 (antibody, human IgG1, kappa)
# heavy 1: not shown
# heavy 2: not shown
# light: DIVMTQSPLSLPVTPGEPASISCQASESLVHSNRNTYLHWYLQKPGQSPQLLIYKVSNRFSGVPDRFSGSGSGTDFTLKISRVEAEDVGVYYCSQNTHVPPTFGQGTKVEIERTVAAPSVFIFPPSDEQLKSGTASVVCLLNNFYPREAKVQWKVDNALQSGNSQESVTEQDSKDSTYSLSSTLTLSKADYEKHKVYACEVTHQGLSSPVTKSFNRGEC
# notes: Heterodimerized antibody, alteration in one H chain only; also called He Ab S267I
# B2: GpH7-A5/GpH7-B3 variant S239_07I/GpL16-k0 (antibody, human IgG1, kappa)
# heavy 1: not shown
# heavy 2: not shown
# light: B1 light
# notes: Heterodimerized antibody, alteration in one H chain only; also called He Ab S239I
# B3: GpH7-A5/GpH7-B3 variant P238_16H/GpL16-k0 (antibody, human IgG1, kappa)
# heavy 1: not shown
# heavy 2: not shown
# light: B1 light
# notes: Heterodimerized antibody, alteration in one H chain only; also called He Ab P238H
# B4: GpH7-A5/GpH7-B3 variant S239_06M/GpL16-k0 (antibody, human IgG1, kappa)
# heavy 1: not shown
# heavy 2: not shown
# light: B1 light
# notes: Heterodimerized antibody, alteration in one H chain only; also called He Ab S239M
# B5: GpH7-A5/GpH7-B3 variant K326_03V/GpL16-k0 (antibody, human IgG1, kappa)
# heavy 1: not shown
# heavy 2: not shown
# light: B1 light
# notes: Heterodimerized antibody, alteration in one H chain only; also called He Ab K326V
# B6: GpH7-A5/GpH7-B3 variant H268_03V/GpL16-k0 (antibody, human IgG1, kappa)
# heavy 1: not shown
# heavy 2: not shown
# light: B1 light
# notes: Heterodimerized antibody, alteration in one H chain only; also called He Ab H268V
# B7: GpH7-A5/GpH7-B3 variant P238_10E/GpL16-k0 (antibody, human IgG1, kappa)
# heavy 1: not shown
# heavy 2: not shown
# light: B1 light
# notes: Heterodimerized antibody, alteration in one H chain only; also called He Ab P238E
# B8: GpH7-A5/GpH7-B3 variant S298_08L/GpL16-k0 (antibody, human IgG1, kappa)
# heavy 1: not shown
# heavy 2: not shown
# light: B1 light
# notes: Heterodimerized antibody, alteration in one H chain only; also called He Ab S298L
# B9: GpH7-A5/GpH7-B3 variant P271_10E/GpL16-k0 (antibody, human IgG1, kappa)
# heavy 1: not shown
# heavy 2: not shown
# light: B1 light
# notes: Heterodimerized antibody, alteration in one H chain only; also called He Ab P271E
# B10: GpH7-A5/GpH7-B3 variant S267_06M/GpL16-k0 (antibody, human IgG1, kappa)
# heavy 1: not shown
# heavy 2: not shown
# light: B1 light
# notes: Heterodimerized antibody, alteration in one H chain only; also called He Ab S267M
# B11: GpH7-A5/GpH7-B3 variant S239_03V/GpL16-k0 (antibody, human IgG1, kappa)
# heavy 1: not shown
# heavy 2: not shown
# light: B1 light
# notes: Heterodimerized antibody, alteration in one H chain only; also called He Ab S239V
# B12: GpH7-A5/GpH7-B3 variant S239_18N/GpL16-k0 (antibody, human IgG1, kappa)
# heavy 1: not shown
# heavy 2: not shown
# light: B1 light
# notes: Heterodimerized antibody, alteration in one H chain only; also called He Ab S239N
# B13: GpH7-A5/GpH7-B3 variant S239_01G/GpL16-k0 (antibody, human IgG1, kappa)
# heavy 1: not shown
# heavy 2: not shown
# light: B1 light
# notes: Heterodimerized antibody, alteration in one H chain only; also called He Ab S239G
# B14: GpH7-A5/GpH7-B3 variant P271_08L/GpL16-k0 (antibody, human IgG1, kappa)
# heavy 1: not shown
# heavy 2: not shown
# light: B1 light
# notes: Heterodimerized antibody, alteration in one H chain only; also called He Ab P271L
# B15: GpH7-A5/GpH7-B3 variant H268_05P/GpL16-k0 (antibody, human IgG1, kappa)
# heavy 1: not shown
# heavy 2: not shown
# light: B1 light
# notes: Heterodimerized antibody, alteration in one H chain only; also called He Ab H268P
# B16: GpH7-A5/GpH7-B3 variant P271_09D/GpL16-k0 (antibody, human IgG1, kappa)
# heavy 1: not shown
# heavy 2: not shown
# light: B1 light
# notes: Heterodimerized antibody, alteration in one H chain only; also called He Ab P271D
# B17: GpH7-A5/GpH7-B3 variant S267_14T/GpL16-k0 (antibody, human IgG1, kappa)
# heavy 1: not shown
# heavy 2: not shown
# light: B1 light
# notes: Heterodimerized antibody, alteration in one H chain only; also called He Ab S267T
# B18: GpH7-A5/GpH7-B3 variant S267_03V/GpL16-k0 (antibody, human IgG1, kappa)
# heavy 1: not shown
# heavy 2: not shown
# light: B1 light
# notes: Heterodimerized antibody, alteration in one H chain only; also called He Ab S267V
# B19: GpH7-A5/GpH7-B3 variant P238_09D/GpL16-k0 (antibody, human IgG1, kappa)
# heavy 1: not shown
# heavy 2: not shown
# light: B1 light
# notes: Heterodimerized antibody, alteration in one H chain only; also called He Ab P238D
# B20: GpH7-A5/GpH7-B3 variant K326_05P/GpL16-k0 (antibody, human IgG1, kappa)
# heavy 1: not shown
# heavy 2: not shown
# light: B1 light
# notes: Heterodimerized antibody, alteration in one H chain only; also called He Ab K326P
# B21: GpH7-A5/GpH7-B3 variant S267_19Q/GpL16-k0 (antibody, human IgG1, kappa)
# heavy 1: not shown
# heavy 2: not shown
# light: B1 light
# notes: Heterodimerized antibody, alteration in one H chain only; also called He Ab S267Q
# B22: GpH7-A5/GpH7-B3 variant K326_04F/GpL16-k0 (antibody, human IgG1, kappa)
# heavy 1: not shown
# heavy 2: not shown
# light: B1 light
# notes: Heterodimerized antibody, alteration in one H chain only; also called He Ab K326F
# B23: GpH7-A5/GpH7-B3 variant H268_20W/GpL16-k0 (antibody, human IgG1, kappa)
# heavy 1: not shown
# heavy 2: not shown
# light: B1 light
# notes: Heterodimerized antibody, alteration in one H chain only; also called He Ab H268W
# B24: GpH7-A5/GpH7-B3 variant K326_08L/GpL16-k0 (antibody, human IgG1, kappa)
# heavy 1: not shown
# heavy 2: not shown
# light: B1 light
# notes: Heterodimerized antibody, alteration in one H chain only; also called He Ab K326L
# B25: GpH7-A5/GpH7-B3 variant G237_05P/GpL16-k0 (antibody, human IgG1, kappa)
# heavy 1: not shown
# heavy 2: not shown
# light: B1 light
# notes: Heterodimerized antibody, alteration in one H chain only; also called He Ab G237P
# Target: T1, FcγRIIa H
# Experiment: SPR (Biacore), antibody captured, FcγR analyte; binding relative to GpH7-A5/GpH7-B3/GpL16-k0 = 100
row,He/Con_2aH,Binder
1,34.7 % of control,B1
2,91.5 % of control,B2
3,45.9 % of control,B3
4,98.6 % of control,B4
5,97 % of control,B5
6,99.2 % of control,B6
7,77.1 % of control,B7
8,85 % of control,B8
9,63.1 % of control,B9
10,34.3 % of control,B10
11,91 % of control,B11
12,94.2 % of control,B12
13,97 % of control,B13
14,86.7 % of control,B14
15,81.8 % of control,B15
16,70.1 % of control,B16
17,63.3 % of control,B17
18,50.8 % of control,B18
19,87.5 % of control,B19
20,98.8 % of control,B20
21,61.3 % of control,B21
22,97 % of control,B22
23,95.8 % of control,B23
24,92.7 % of control,B24

# Target: T2, FcγRIIb
# Experiment: as above
row,He/Con_2b,Binder
1,24.6 % of control,B25
2,192 % of control,B1
3,107 % of control,B2
4,115 % of control,B3
5,101 % of control,B4
6,175 % of control,B5
7,114 % of control,B6
8,232 % of control,B7
9,108 % of control,B8
10,109 % of control,B9
11,210 % of control,B10
12,108 % of control,B11
13,119 % of control,B12
14,144 % of control,B13
15,103 % of control,B14
16,116 % of control,B15
17,120 % of control,B16
18,104 % of control,B17
19,192 % of control,B18
20,221 % of control,B19
21,126 % of control,B20
22,218 % of control,B21
23,155 % of control,B22
24,111 % of control,B23
25,177 % of control,B24
